Test results from US20200291066A1.
Like-named read-outs stand apart in the source and are kept apart here. Ends that are not written are not given here.

How the values were obtained:
[1] = biological target: T1, human IL-2Rβ (CD122 protein, Fc Tag) (27-239) (human), P14784; test: pH-dependent ELISA (Examples 9-12)
T1 chain: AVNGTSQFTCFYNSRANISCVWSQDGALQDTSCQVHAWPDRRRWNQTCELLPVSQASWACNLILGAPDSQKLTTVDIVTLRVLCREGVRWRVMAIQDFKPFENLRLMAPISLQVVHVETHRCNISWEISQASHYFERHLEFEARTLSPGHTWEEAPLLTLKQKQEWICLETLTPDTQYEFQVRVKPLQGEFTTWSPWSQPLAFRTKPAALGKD

[2] = biological target: T1, human IL-2Rβ (CD122 protein, Fc Tag) …; test: pH-dependent ELISA (Examples 9-12)

B1: SEQ ID NO 489 (peptide)
peptide: PGVQDCXIAHXGELCEFVWN
modifications: not fully specified; X: residue not identified in the source; ends and bridges not checked
[1]
  decrease in binding at pH 7.5 compared to pH 6.0: > 15%
[2]
  decrease in binding at pH 7.5 compared to pH 6.0: > 50%
